T1: RhoA complexed with Rho GDI (Bos taurus, UniProt P19803)
T1 construct: GST (N, cleaved yes); made in house; host or cells: yeast (RhoA, from membranes); E. coli (Rho GDI, pGEX)
T1 sequence (P19803 1-204): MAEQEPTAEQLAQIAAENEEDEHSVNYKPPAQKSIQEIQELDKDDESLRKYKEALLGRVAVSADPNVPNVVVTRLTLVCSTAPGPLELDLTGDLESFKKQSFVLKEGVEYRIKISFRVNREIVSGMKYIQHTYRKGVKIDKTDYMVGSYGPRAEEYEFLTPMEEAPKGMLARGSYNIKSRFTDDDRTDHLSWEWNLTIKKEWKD


How the values were obtained:
[1] = molecular target: T1, RhoA complexed with Rho GDI; test: In vitro nucleotide exchange assay; format: biochemical; conditions: high Mg2+; 50 nM complex, 90 nM GST-Dbl
Experimental: Lipid-modified RhoA was purified from yeast membranes as described (Forget, M. A., Desrosiers, R. R., Gingras, D. & Beliveau, R., Biochem. J. 361, 243-54(2002)). [^3H]GDP- or GDP-RhoA complexed with Rho GDI was obtained by first incubating GDP-RhoA with or without [^3H]GDP, followed by incubation with Rho GDI for 30 min, as described previously (Takahashi, K. et al., J. Biol. Chem. 272, 23371-23375 (1997)). The sample, subjected to gel filtration, was equilibrated with 20 mM Tris-HCl (pH 7.5) containing 5 mM MgCl2, 1 mM dithiothreitol and 0.1% CHAPS. The GDP dissociation and GTP binding assays were carried out by the filter binding method as described previously (Hart, M. J., Eva, A., Evans, T., Aaronson, S. A. & Cerione, R. A., Nature 354, 311-314 (1991)). In the [^3H]GDP dissociation assay, 50 nM of the complex was incubated for 20 min with various concentrations of GST-fused proteins in a reaction mixture (50 μl) containing 30 mM Tris-HCl (pH 7.5), 5 mM or 0.5 μM MgCl2, 1 (for low Mg) or 10 (for high Mg) mM EDTA, 0.1 mM GTP, 1 mM dithiothreitol, 0.12% CHAPS and 0.2mg/ml bovine serum albumin. In the [^35S] GTPγS binding assay, the complex was incubated as described above except that 1 μM [^35S] GTPγS was used instead of 0.1 mM GTP. At the indicated time, an aliquot of the reaction sample was removed, and passed through nitrocellulose filters (IPVH 000, Millipore). […]

male Wistar rats = test: Spinal cord injury (dorsal half dissected, ninth thoracic vertebra), agent pumped to the injured site; format: in vivo, rat; conditions: species not stated
Experimental: 200 g male Wistar rats were used. After the ninth thoracic vertebrae laminectomy was performed, the dorsal half of the spinal cord was dissected. A continuous osmotic pump was used to continuously administer either TAT(PTD domain)-fused Pep5 (TAT-[…]) (SEQ ID NO. 2) or TAT(PTD domain)-fused control peptide (TAT-[…]) (SEQ ID NO. 15) to the injured site for 6 weeks ([…]). In this case, the tip of a tube connected to the pump was left in the medullary space. After spinal cord injury, the functional recovery was assessed using the BBB score. The animals were observed on day 7, 14, 21, 28, 35, and 42 after injury. These experiments were carried out using techniques described in Fournier A. E., Takizawa, B. T., Strittmatter, S. M., J. Neurosci. 2003, 23, 1416-1423.
200 g male Wistar rats were used. After the ninth thoracic vertebrae laminectomy was performed, the dorsal half of the spinal cord was dissected. A continuous osmotic pump was used to continuously administer either TAT-fused Pep5 or TAT (PTD domain)-fused control peptide to the injured site.

Molecule | Dbl stimulated dissociation of GDP from GDP-RhoA complexed with Rho GDI [1] | nerve regeneration, similar experiments with modified amino acids (Example 2-8) (male Wistar rats)
p75 ICD: GST-fused intracellular domain (ICD) of p75 (protein, left off: a dimerising Fc or GST) KRWNSCKQNKQGANSRPVNQTPPPEGEKLHSDSGISVDSQSLHDQQTHTQTASGQALKGDGNLYSSLPLTKREEVEKLLNGDTWRHLAGELGYQPEHIDSFTHEACPVRALLASWGAQDSATLDALLAALRRIQRADIVESLCSESTATSPV | showed the inhibitory effect to the same extent as p75 HD | –
p75 in which alanine was replaced with valine at amino acid 423: p75 positions 273-427 of SEQ ID NO. 4 with alanine replaced with valine at amino acid 423 (protein, Homo sapien) KRWNSCKQNKQGANSRPVNQTPPPEGEKLHSDSGISVDSQSLHDQQPHTQTASGQALKGDGGLYSSLPPAKREEVEKLLNGSAGDTWRHLAGELGYQPEHIDSFTHEACPVRALLASWATQDSATLDALLAALRRIQRADLVESLCSESTVTSPV | – | nerve regeneration was similarly observed

Reference: patent US20040191240A1, “Composition and method for nerve regeneration” (priority 2003, published 2004)
